According to patent CN113583114A (YANG SHENG TANG CO LTD; UNIV XIAMEN, dated 2021):

B1: 人源单克隆抗体3C11 (antibody, V domains shown)
VH: EVQLVESGGGLVQPGGSLRLSCAASGFTVSRNYMSWVRQAPGKGLEWVSVIYSGGSTYYADSVKGRFTISRDNSKNTLYLQMNSLRAEDTAVYYCARGLVASYRYGMDVWGQGTTVTVSS
VL: DIQMTQSPVSLSASIGDRVTITCQASQDITNYLNWYQQKPGKAPKLLIYDASNLETGVPSRFSGSGSGTDFTFTISSLQPEDIATYYCHQYDNLPVTFGGGTKVEIK
B2: 人源单克隆抗体6G9 (antibody, V domains shown)
VH: QVQLVQSGAEVKKLGASVKVSCKASGYSFTDYYIHWVRQAPGQGLEWMGWINPISGGTNYAQKFQGRVTMTRDTSITTVYMELSRLRSDDTAVYYCARDLPPYNWNGPLRSQRFDCWGQGTLVTVSS
VL: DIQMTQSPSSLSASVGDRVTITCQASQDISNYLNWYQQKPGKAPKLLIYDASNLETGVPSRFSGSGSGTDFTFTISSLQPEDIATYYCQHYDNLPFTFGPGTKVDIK
B3: 人源单克隆抗体5C6 (antibody, V domains shown)
VH: EVQLVESGGGVVQPGRSLRLSCAASGFTFRTYAMHWVRQAPGKGLEWVAVMWNDGSNKYYADSVKGRFTISRDNSKNTLYLEMNSLRAEDTAVYYCAREGVAAAGSSSDAFDIWGQGTMVTVSS
VL: DIQMTQSPSSLSASVGDRVTITCRASQSISNFLNWYQQKPGKAPKLLIYAASSLQSGVPSRFSGSGSGTDFTLTISSLQPEDFATYYCQQSYSTLYSFGQGTKLEIK

target: SARS-CoV-2Sde18 (SARS-CoV-2 S蛋白, C末端截短18个氨基酸) on VSV pseudovirus SARS-CoV-2VSVpp (SARS-CoV-2, UniProt P0DTC2 14-1255); experiment: cell-based or functional assay

**Q.** Which 假病毒感染阻断率 does the source give for B1 here?
**A.** The 假病毒感染阻断率 was 80 % (at 0.22 μg/mL).

**Q.** And the “半抑制浓度(IC50), 假病毒中和 (GFP阳性细胞数减少)” value?
**A.** Its value is 62.9 ng/mL.

**Q.** Which results are given for B2?
**A.** 假病毒感染阻断率: 80 % (at 0.22 μg/mL); 半抑制浓度(IC50), 假病毒中和 (GFP阳性细胞数减少): 0.56 ng/mL

**Q.** Which results are given for B3?
**A.** 假病毒感染阻断率: 80 % (at 0.22 μg/mL); 半抑制浓度(IC50), 假病毒中和 (GFP阳性细胞数减少): 4.06 ng/mL
